Publication PMC6222848, “Spatial Overlap of Claudin- and Phosphatidylinositol Phosphate-Binding Sites on the First PDZ Domain of Zonula Occludens 1 Studied by NMR” (Molecules : A Journal of Synthetic Chemistry and Natural …, 2018)

B1: GST-tagged mouse ZO-1(PDZ1) (residues 18–110) [mouse] / His6-tagged thioredoxin (Trx) fusion protein of mouse CLD-3 C-terminus (Trx-CLD3, residues 210–219) [mouse] (parent complex)
chain 1: IWEQHTVTLHRAPGFGFGIAISGGRDNPHFQSGETSIVISDVLKGGPAEGQLQENDRVAMVNGVSMDNVEHAFAVQQLRKSGKNAKITIRRKK
chain 2: GTAYDRKDYV

Variants of: B1
Assay: SPR; absence of phytic acid (gray bar); parent: 1.2e+03; read off a plot

In order of rising response:
1. chain 1 IWEQHTVTLHRAPGFGAGIAISGGRDNPHFQSGETSIVISDVLKGGPAEGQLQENDRVAMVNGVSMDNVEHAFAVQQLRKSGKNAKITIRRKK  ~15 RU
2. chain 1 IWEQHTVTLHRAPGFGFGIAISGGRDNPHFQSGETSIVISDVLKGGPAEGQLQENDRVAMVNGVSMDNVEHAFAAQQLRKSGKNAKITIRRKK  ~22 RU
3. chain 1 IWEQHTVTLHRAPGFGFGIAISGGRDNPHFQSGETSIVISDVAKGGPAEGQLQENDRVAMVNGVSMDNVEHAFAVQQLRKSGKNAKITIRRKK  ~28 RU
4. chain 1 IWEQHTVTLHRAPGFGFGIAISGGRDNPHFQSGETSIVISDVLKGGPAEGQLQENDRVAMVNGVSMDNVEHAFAVQQLAKSGKNAKITIRRKK  ~40 RU
5. chain 1 IWEQHTVTLHRAPGFGFGIAISGGRDNPHFQSGETSIVISAVLKGGPAEGQLQENDRVAMVNGVSMDNVEHAFAVQQLRKSGKNAKITIRRKK  ~110 RU
